According to US20100130424A1 (Janssen / Centocor, published 2010):
No end group written: not given here.

Biological target: T1, human CRH receptor type 2 (human, UniProt Q13324 1-411)
T1 sequence (looked up): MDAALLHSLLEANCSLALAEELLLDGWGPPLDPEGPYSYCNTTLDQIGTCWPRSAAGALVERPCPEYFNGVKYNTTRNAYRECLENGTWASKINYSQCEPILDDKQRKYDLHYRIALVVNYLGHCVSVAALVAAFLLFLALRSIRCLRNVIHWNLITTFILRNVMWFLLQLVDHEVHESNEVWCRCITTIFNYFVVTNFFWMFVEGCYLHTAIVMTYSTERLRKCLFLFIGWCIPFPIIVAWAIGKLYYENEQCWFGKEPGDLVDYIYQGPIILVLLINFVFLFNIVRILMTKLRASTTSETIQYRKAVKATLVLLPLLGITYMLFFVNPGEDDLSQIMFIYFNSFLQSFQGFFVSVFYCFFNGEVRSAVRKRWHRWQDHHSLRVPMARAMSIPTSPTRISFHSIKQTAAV
Test: cell-based or functional assay

B1: Cys-variant CRHR2 peptide agonist, SEQ ID NO: 33 (peptide)
peptide: TKFTLSLDVPTNIMNLLFNIAKAKNLRAQAACNAHLMAQI-NH2
B1 was tested, and the “Log DR against h-SCP, cAMP” value was 0.45 log10 ratio and the “pA50, cAMP” value was 9.07 -log M.

B2: Cys-variant CRHR2 peptide agonist, SEQ ID NO: 37 (peptide)
peptide: TKFTLSLDVPTNIMNLLFNIAKAKNLRAQAAANAHCMAQI-NH2
For B2, the “Log DR against h-SCP, cAMP” value was 1.05 log10 ratio and the “pA50, cAMP” value was 8.58 -log M.

B3: Cys-variant CRHR2 peptide agonist, SEQ ID NO: 36 (peptide)
peptide: TKFTLSLDVPTNIMNLLFNIAKAKNLRAQAAANACLMAQI-NH2
For B3, the “Log DR against h-SCP, cAMP” value was 0.42 log10 ratio and the “pA50, cAMP” value was 9.1 -log M.

B4: Cys-variant CRHR2 peptide agonist, SEQ ID NO: 29 (peptide)
peptide: TKFTLSLDVPTNIMNLLFNIAKAKNLRCQAAANAHLMAQI-NH2
For B4, the “Log DR against h-SCP, cAMP” value was 0 log10 ratio and the “pA50, cAMP” value was 9.47 -log M.

B5: Pegylated Cys-variant CRHR2 peptide agonist (NES linker, PEG about 20 kDa), SEQ ID NO: 81 (peptide)
peptide: TKFTLSLDVPTNIMNLLFNIAKAKNLCAQAAANAHLMAQI
modifications: NES-PEG (about 20 kDa) on Cys 27; C-terminal amide
B5 was tested, and the “Log DR against h-SCP, cAMP” value was 1.82 log10 ratio and the “pA50, cAMP” value was 7.83 -log M.

B6: Pegylated Cys-variant CRHR2 peptide agonist (NES linker, PEG about 20 kDa), SEQ ID NO: 93 (peptide)
peptide: TKFTLSLDVPTNIMNLLFNIAKAKNLRAQAAANAHLMACI
modifications: NES-PEG (about 20 kDa) on Cys 39; C-terminal amide
B6 was tested, and the “Log DR against h-SCP, cAMP” value was 1.47 log10 ratio and the “pA50, cAMP” value was 8.2 -log M.

B7: Pegylated Cys-variant CRHR2 peptide agonist (NES-PEG MW2000), SEQ ID NO: 95 (peptide)
peptide: TKFTLSLDVPTNIMNLLFNIAKAKNLRCQAAANAHLMAQI
modifications: NES-PEG MW2000 on Cys 28; C-terminal amide
In the case of B7, the “Log DR against h-SCP, cAMP” value is reported as 0.43 log10 ratio and the “pA50, cAMP” value is reported as 9.31 -log M.

B8: Pegylated Cys-variant CRHR2 peptide agonist (NES linker, PEG about 20 kDa), SEQ ID NO: 85 (peptide)
peptide: TKFTLSLDVPTNIMNLLFNIAKAKNLRAQACANAHLMAQI
modifications: NES-PEG (about 20 kDa) on Cys 31; C-terminal amide
In the case of B8, the “Log DR against h-SCP, cAMP” value is reported as 0.89 log10 ratio and the “pA50, cAMP” value is reported as 8.51 -log M.

B9: Pegylated Cys-variant CRHR2 peptide agonist (NES linker, PEG about 20 kDa), SEQ ID NO: 88 (peptide)
peptide: TKFTLSLDVPTNIMNLLFNIAKAKNLRAQAAANCHLMAQI
modifications: NES-PEG (about 20 kDa) on Cys 34; C-terminal amide
In the case of B9, the “Log DR against h-SCP, cAMP” value is reported as 1.55 log10 ratio and the “pA50, cAMP” value is reported as 8.12 -log M.

B10: Pegylated Cys-variant CRHR2 peptide agonist (NES linker, PEG about 20 kDa), SEQ ID NO: 87 (peptide)
peptide: TKFTLSLDVPTNIMNLLFNIAKAKNLRAQAAACAHLMAQI
modifications: NES-PEG (about 20 kDa) on Cys 33; C-terminal amide
With B10 the “Log DR against h-SCP, cAMP” value was over 3.68 log10 ratio and the “pA50, cAMP” value was ~6 -log M.

B11: Pegylated Cys-variant CRHR2 peptide agonist (NES linker, PEG about 20 kDa), SEQ ID NO: 92 (peptide)
peptide: TKFTLSLDVPTNIMNLLFNIAKAKNLRAQAAANAHLMCQI
modifications: NES-PEG (about 20 kDa) on Cys 38; C-terminal amide
With B11 the “Log DR against h-SCP, cAMP” value was 1.55 log10 ratio and the “pA50, cAMP” value was 8.12 -log M.

B12: Pegylated Cys-variant CRHR2 peptide agonist (NES linker, PEG about 20 kDa), SEQ ID NO: 82 (peptide)
peptide: TKFTLSLDVPTNIMNLLFNIAKAKNLRCQAAANAHLMAQI
modifications: NES-PEG (about 20 kDa; MW20000) on Cys 28; C-terminal amide
B12 was tested, and the “Log DR against h-SCP, cAMP” value was 1.12 log10 ratio and the “pA50, cAMP” value was 8.4 -log M.

B13: Pegylated Cys-variant CRHR2 peptide agonist (NES linker, PEG about 20 kDa), SEQ ID NO: 89 (peptide)
peptide: TKFTLSLDVPTNIMNLLFNIAKAKNLRAQAAANACLMAQI
modifications: NES-PEG (about 20 kDa) on Cys 35; C-terminal amide
For B13, the “Log DR against h-SCP, cAMP” value was 0.98 log10 ratio and the “pA50, cAMP” value was 8.48 -log M.

B14: Pegylated Cys-variant CRHR2 peptide agonist (NES linker, PEG about 20 kDa), SEQ ID NO: 84 (peptide)
peptide: TKFTLSLDVPTNIMNLLFNIAKAKNLRAQCAANAHLMAQI
modifications: NES-PEG (about 20 kDa) on Cys 30; C-terminal amide
For B14, the “Log DR against h-SCP, cAMP” value was about 2.84 log10 ratio and the “pA50, cAMP” value was ~6.82 -log M.

B15: Pegylated Cys-variant CRHR2 peptide agonist (NES linker, PEG about 20 kDa), SEQ ID NO: 83 (peptide)
peptide: TKFTLSLDVPTNIMNLLFNIAKAKNLRACAAANAHLMAQI
modifications: NES-PEG (about 20 kDa) on Cys 29; C-terminal amide
For B15, the “Log DR against h-SCP, cAMP” value was 1.63 log10 ratio and the “pA50, cAMP” value was 7.91 -log M.

B16: Pegylated Cys-variant CRHR2 peptide agonist (NES linker, PEG about 20 kDa), SEQ ID NO: 91 (peptide)
peptide: TKFTLSLDVPTNIMNLLFNIAKAKNLRAQAAANAHLCAQI
modifications: NES-PEG (about 20 kDa) on Cys 37; C-terminal amide
B16 was tested, and the “Log DR against h-SCP, cAMP” value was over 3.43 log10 ratio and the “pA50, cAMP” value was ~6.23 -log M.

B17: Pegylated Cys-variant CRHR2 peptide agonist (NES linker, PEG about 20 kDa), SEQ ID NO: 86 (peptide)
peptide: TKFTLSLDVPTNIMNLLFNIAKAKNLRAQAACNAHLMAQI
modifications: NES-PEG (about 20 kDa) on Cys 32; C-terminal amide
In the case of B17, the “Log DR against h-SCP, cAMP” value is reported as 0.82 log10 ratio and the “pA50, cAMP” value is reported as 8.79 -log M.

B18: Pegylated Cys-variant CRHR2 peptide agonist (NES linker, PEG about 20 kDa), SEQ ID NO: 94 (peptide)
peptide: TKFTLSLDVPTNIMNLLFNIAKAKNLRAQAAANAHLMAQC
modifications: NES-PEG (about 20 kDa) on Cys 40; C-terminal amide
With B18 the “Log DR against h-SCP, cAMP” value was over 2.39 log10 ratio and the “pA50, cAMP” value was ~7 -log M.

B19: Cys-variant CRHR2 peptide agonist, SEQ ID NO: 34 (peptide)
peptide: TKFTLSLDVPTNIMNLLFNIAKAKNLRAQAAACAHLMAQI-NH2
For B19, the “Log DR against h-SCP, cAMP” value was over 3.19 log10 ratio and the “pA50, cAMP” value was ~6.32 -log M.

B20: Cys-variant CRHR2 peptide agonist, SEQ ID NO: 31 (peptide)
peptide: TKFTLSLDVPTNIMNLLFNIAKAKNLRAQCAANAHLMAQI-NH2
For B20, the “Log DR against h-SCP, cAMP” value was 1.61 log10 ratio and the “pA50, cAMP” value was 8.02 -log M.

B21: Cys-variant CRHR2 peptide agonist, SEQ ID NO: 38 (peptide)
peptide: TKFTLSLDVPTNIMNLLFNIAKAKNLRAQAAANAHLCAQI-NH2
In the case of B21, the “Log DR against h-SCP, cAMP” value is reported as over 2.95 log10 ratio and the “pA50, cAMP” value is reported as ~6.67 -log M.

B22: Cys-variant CRHR2 peptide agonist, SEQ ID NO: 28 (peptide)
peptide: TKFTLSLDVPTNIMNLLFNIAKAKNLCAQAAANAHLMAQI-NH2
B22 was tested, and the “Log DR against h-SCP, cAMP” value was 0.16 log10 ratio and the “pA50, cAMP” value was 9.36 -log M.

B23: Cys-variant CRHR2 peptide agonist, SEQ ID NO: 39 (peptide)
peptide: TKFTLSLDVPTNIMNLLFNIAKAKNLRAQAAANAHLMCQI-NH2
In the case of B23, the “Log DR against h-SCP, cAMP” value is reported as 0.41 log10 ratio and the “pA50, cAMP” value is reported as 9.21 -log M.

B24: Cys-variant CRHR2 peptide agonist, SEQ ID NO: 30 (peptide)
peptide: TKFTLSLDVPTNIMNLLFNIAKAKNLRACAAANAHLMAQI-NH2
With B24 the “Log DR against h-SCP, cAMP” value was 1.28 log10 ratio and the “pA50, cAMP” value was 8.4 -log M.

B25: Cys-variant CRHR2 peptide agonist, SEQ ID NO: 35 (peptide)
peptide: TKFTLSLDVPTNIMNLLFNIAKAKNLRAQAAANCHLMAQI-NH2
B25 was tested, and the “Log DR against h-SCP, cAMP” value was 0.7 log10 ratio and the “pA50, cAMP” value was 8.93 -log M.

B26: Cys-variant CRHR2 peptide agonist, SEQ ID NO: 41 (peptide)
peptide: TKFTLSLDVPTNIMNLLFNIAKAKNLRAQAAANAHLMAQC-NH2
In the case of B26, the “Log DR against h-SCP, cAMP” value is reported as 2.07 log10 ratio and the “pA50, cAMP” value is reported as 7.45 -log M.

B27: Cys-variant CRHR2 peptide agonist, SEQ ID NO: 32 (peptide)
peptide: TKFTLSLDVPTNIMNLLFNIAKAKNLRAQACANAHLMAQI-NH2
B27 was tested, and the “Log DR against h-SCP, cAMP” value was 0.11 log10 ratio and the “pA50, cAMP” value was 9.41 -log M.

B28: Cys-variant CRHR2 peptide agonist, SEQ ID NO: 40 (peptide)
peptide: TKFTLSLDVPTNIMNLLFNIAKAKNLRAQAAANAHLMACI-NH2
In the case of B28, the “Log DR against h-SCP, cAMP” value is reported as 0.55 log10 ratio and the “pA50, cAMP” value is reported as 9.08 -log M.
